Data set [1] has as its system HeLa Kyoto. The experiment in a line: solubility in G1/S (NP-40 vs SDS abundance) (log2 ratio); higher = more soluble. Particulars: cell cycle stage: G1/S.
The test system of data set [2] is HeLa Kyoto. The experiment in a line: solubility change mitosis vs G1/S (difference of NP-40 vs SDS log2 ratios) (log2 ratio difference); higher = more soluble in mitosis.
Data set [3] relates to HeLa Kyoto. As to the kind of experiment: thermal stability score vs G1/S (z-score of summed log2 fold changes over temperatures); higher = more thermally stable than in G1/S.
Data set [4] has as its system HeLa Kyoto. As to the kind of experiment: melting temperature (median over replicates), in situ; higher = more thermally stable.
[5] abbreviates: cell cycle stage: early G1 (4.5 h after nocodazole release).
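For melting temperature (median over replicates), in situ in this document: HeLa Kyoto cells synchronized by double thymidine or nocodazole block, proteins quantified by TMT10plex mass spectrometry, three independent biological replicates.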
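For solubility change mitosis vs G1/S (difference of NP-40 vs SDS log2 ratios) in this document: synchronized HeLa Kyoto cells (double thymidine block for G1/S, nocodazole release for mitosis), protein amounts in NP-40 versus SDS lysates quantified by mass spectrometry, three biological replicates.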
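For solubility in G1/S (NP-40 vs SDS abundance) in this document: HeLa Kyoto cells arrested at G1/S by double thymidine block, proteins quantified by TMT10plex mass spectrometry in mild NP-40 versus SDS extracts, three biological replicates.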
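For thermal stability score vs G1/S (z-score of summed log2 fold changes over temperatures) in this document: synchronized HeLa Kyoto cells, proteins quantified by TMT10plex mass spectrometry, three biological replicates, mitosis taken 0.5 h after nocodazole release, G1/S directly after double thymidine block.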

NFYA, sequence (chain, as listed by the source): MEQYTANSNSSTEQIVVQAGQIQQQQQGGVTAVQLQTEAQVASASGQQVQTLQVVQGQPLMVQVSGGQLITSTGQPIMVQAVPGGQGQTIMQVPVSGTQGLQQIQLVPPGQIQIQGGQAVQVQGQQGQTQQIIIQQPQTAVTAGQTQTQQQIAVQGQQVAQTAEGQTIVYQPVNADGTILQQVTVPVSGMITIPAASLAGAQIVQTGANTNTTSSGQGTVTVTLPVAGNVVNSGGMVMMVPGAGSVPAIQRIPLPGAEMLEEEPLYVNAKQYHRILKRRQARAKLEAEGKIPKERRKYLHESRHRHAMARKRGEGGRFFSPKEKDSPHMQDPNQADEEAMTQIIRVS
UNC13B, sequence (chain, as listed by the source): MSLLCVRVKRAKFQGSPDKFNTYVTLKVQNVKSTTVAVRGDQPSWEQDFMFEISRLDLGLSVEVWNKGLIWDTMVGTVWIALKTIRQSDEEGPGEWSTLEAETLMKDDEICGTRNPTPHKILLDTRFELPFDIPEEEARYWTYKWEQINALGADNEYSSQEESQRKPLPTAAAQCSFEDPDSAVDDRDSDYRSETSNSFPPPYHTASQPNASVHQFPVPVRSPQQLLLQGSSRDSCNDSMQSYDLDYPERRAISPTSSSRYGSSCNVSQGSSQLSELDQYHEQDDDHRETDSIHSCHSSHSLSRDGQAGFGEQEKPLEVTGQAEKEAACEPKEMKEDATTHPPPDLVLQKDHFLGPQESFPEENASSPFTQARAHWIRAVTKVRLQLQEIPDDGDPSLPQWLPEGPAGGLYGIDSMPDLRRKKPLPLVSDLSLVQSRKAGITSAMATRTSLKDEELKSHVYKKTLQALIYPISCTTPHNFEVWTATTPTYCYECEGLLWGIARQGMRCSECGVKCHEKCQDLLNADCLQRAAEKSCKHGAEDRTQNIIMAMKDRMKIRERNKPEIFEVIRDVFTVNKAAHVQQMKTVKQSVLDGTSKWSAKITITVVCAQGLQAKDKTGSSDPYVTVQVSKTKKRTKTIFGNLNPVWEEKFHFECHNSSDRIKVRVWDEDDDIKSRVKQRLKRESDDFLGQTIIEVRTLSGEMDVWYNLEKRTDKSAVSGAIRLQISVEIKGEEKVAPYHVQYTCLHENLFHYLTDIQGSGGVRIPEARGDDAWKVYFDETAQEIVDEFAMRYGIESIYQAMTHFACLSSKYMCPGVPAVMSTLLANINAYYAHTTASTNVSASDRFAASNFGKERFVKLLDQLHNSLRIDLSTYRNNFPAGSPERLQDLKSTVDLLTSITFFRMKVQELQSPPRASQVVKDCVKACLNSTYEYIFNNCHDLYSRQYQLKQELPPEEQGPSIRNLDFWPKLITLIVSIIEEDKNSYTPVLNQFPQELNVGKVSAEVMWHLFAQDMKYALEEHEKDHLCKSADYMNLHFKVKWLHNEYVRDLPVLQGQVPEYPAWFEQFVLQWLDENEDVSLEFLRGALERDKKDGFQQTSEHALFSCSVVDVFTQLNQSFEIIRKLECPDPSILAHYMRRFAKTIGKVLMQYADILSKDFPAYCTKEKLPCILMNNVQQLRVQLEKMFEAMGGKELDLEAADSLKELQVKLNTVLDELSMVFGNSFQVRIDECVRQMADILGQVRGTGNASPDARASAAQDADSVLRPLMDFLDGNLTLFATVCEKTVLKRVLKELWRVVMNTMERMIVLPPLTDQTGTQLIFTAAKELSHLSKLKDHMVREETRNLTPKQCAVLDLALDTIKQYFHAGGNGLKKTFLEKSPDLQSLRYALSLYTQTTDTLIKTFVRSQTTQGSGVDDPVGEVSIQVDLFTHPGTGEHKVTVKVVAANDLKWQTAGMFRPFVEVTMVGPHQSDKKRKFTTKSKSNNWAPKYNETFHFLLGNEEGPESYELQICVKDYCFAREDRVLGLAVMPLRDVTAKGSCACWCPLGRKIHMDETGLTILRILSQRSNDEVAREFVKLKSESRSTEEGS
TGOLN2, sequence (chain, as listed by the source): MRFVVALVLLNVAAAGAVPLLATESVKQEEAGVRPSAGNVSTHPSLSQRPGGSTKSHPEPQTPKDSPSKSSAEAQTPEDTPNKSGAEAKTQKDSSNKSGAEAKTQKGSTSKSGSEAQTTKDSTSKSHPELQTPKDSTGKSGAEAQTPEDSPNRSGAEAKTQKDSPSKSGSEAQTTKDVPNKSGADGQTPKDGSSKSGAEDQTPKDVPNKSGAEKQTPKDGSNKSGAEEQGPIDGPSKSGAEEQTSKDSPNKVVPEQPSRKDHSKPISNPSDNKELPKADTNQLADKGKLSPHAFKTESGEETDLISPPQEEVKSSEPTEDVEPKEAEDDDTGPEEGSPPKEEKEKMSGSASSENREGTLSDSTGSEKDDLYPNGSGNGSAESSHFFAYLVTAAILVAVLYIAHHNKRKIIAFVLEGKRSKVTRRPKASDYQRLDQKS
WNK2, sequence (chain, as listed by the source): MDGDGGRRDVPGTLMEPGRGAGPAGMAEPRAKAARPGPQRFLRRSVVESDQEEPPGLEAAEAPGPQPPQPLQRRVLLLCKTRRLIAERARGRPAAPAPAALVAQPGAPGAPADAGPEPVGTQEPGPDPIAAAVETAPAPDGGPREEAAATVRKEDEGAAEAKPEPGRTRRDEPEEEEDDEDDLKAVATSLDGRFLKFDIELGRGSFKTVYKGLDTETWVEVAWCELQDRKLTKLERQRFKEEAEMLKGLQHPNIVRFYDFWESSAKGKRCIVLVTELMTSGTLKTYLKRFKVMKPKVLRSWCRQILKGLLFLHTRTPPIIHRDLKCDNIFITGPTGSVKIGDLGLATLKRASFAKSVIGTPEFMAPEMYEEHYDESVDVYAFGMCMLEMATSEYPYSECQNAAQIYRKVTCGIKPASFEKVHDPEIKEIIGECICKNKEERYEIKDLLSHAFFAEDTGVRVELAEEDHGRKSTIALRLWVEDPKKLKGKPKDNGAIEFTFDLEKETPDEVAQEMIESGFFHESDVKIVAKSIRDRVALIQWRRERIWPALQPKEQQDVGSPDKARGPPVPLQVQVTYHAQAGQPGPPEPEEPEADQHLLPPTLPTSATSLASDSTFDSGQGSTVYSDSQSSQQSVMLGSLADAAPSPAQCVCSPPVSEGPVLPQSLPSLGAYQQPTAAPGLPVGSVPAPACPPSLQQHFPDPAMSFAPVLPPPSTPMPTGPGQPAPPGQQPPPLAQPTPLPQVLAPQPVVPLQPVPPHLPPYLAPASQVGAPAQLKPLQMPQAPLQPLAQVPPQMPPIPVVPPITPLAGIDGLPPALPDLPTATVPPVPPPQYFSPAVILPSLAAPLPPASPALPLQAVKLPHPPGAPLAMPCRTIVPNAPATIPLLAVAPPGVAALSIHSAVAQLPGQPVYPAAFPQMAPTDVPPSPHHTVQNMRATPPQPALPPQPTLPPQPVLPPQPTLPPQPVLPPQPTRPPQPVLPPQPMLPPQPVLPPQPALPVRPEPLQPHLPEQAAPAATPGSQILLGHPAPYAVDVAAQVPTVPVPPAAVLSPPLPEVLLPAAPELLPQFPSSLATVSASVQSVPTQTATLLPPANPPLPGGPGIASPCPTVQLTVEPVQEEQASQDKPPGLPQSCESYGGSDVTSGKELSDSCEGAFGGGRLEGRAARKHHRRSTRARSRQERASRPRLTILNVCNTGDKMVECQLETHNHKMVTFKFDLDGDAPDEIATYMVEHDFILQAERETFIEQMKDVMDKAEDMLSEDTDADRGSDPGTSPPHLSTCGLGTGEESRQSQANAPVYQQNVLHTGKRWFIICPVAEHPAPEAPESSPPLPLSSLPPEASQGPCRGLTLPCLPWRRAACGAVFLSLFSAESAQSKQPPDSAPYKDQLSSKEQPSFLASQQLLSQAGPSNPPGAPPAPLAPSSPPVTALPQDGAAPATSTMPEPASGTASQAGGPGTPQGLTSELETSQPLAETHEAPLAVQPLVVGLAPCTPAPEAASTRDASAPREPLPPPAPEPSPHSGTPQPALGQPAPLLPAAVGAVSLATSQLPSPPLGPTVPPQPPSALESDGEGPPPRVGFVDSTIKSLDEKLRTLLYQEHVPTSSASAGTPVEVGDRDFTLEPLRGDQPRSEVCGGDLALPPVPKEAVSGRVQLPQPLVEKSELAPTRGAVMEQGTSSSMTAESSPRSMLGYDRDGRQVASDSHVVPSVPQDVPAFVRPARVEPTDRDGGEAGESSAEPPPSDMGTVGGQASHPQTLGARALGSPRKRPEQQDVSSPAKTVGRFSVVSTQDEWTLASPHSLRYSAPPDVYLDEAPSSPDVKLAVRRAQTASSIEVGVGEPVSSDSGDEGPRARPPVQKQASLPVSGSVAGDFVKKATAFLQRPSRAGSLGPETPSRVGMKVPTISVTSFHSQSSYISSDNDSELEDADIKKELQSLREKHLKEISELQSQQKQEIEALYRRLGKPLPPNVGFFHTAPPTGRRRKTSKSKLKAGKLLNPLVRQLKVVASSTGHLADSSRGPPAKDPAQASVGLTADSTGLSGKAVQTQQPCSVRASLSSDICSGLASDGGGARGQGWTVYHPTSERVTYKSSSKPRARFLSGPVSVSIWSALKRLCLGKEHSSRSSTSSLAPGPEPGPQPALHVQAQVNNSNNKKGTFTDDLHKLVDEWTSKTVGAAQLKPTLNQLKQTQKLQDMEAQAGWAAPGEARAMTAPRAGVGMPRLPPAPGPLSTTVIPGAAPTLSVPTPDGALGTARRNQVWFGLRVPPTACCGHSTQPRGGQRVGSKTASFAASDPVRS
ZNF593, sequence (chain, as listed by the source): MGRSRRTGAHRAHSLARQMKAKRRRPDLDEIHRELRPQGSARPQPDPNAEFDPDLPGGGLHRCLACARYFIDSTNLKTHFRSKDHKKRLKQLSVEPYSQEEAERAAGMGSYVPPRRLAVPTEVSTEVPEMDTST

As for ABCA2, the “solubility in G1/S (log2)” value in the data set with HeLa Kyoto [1] is 0.0925. Besides, in the data set with HeLa Kyoto [2], the “solubility change mitosis (log2)” value is -0.105. For the same substance, the thermal stability score in the data set with HeLa Kyoto [3] (setting [5]) is 0.174; in the data set on HeLa Kyoto [3] (cell cycle stage: mitosis) it was -0.253.
On the same counts, the results for APOBEC3B are -0.745, 0.177, 0.584 and 1.24.
The like results for CELSR1 were, in that order, -0.413, -0.0398, -1.99 and -1.59.
Regarding EML1, in the data set with HeLa Kyoto [1], the “solubility in G1/S (log2)” value is -0.0717. The “solubility change mitosis (log2)” value with HeLa Kyoto [2] was -0.126. In addition, the thermal stability score was 0.361 in the data set with HeLa Kyoto [3] (setting [5]) and 0.0361 in the data set on HeLa Kyoto [3] (cell cycle stage: mitosis).
The like results for KIAA0430 were, in that order, -0.0573, 0.0372, -0.446 and -0.799.
On the same counts, the results for “MAARAVLDEFTAPAEKAELLEQSRGRIEGLFGVSLAVLGALGAEEPLPARIWLQLCGAQEAVHSAKEYIKGICEPELEERECYPKDMHCIFVGAESLFLKSLIQDTCADLCILDIGLLGIRGSAEAVVMARSHIQQFVKLFENKENLPSSQKESEVKREFKQFVEAHADNYTMDLLILPTSLKKELLTLTQGEENLFETGDDEVIEMRDSQQTEFTQNAATGLNISRDETVLQEEARNKAGTPVSELTKQMDTVLSSSPDVLFDPINGLTPDEEALSNERICQKRRFSDSEERHTKKQFSLENVQEGEILHDAKTLAGNVIADLSDSSADSENLSPDIKETTEEMEYNILVNFFKTMGYSQEIVEKVIKVYGPSTEPLLLLEEIEKENKRFQEDREFSAGTVYPETNKTKNKGVYSSTNELTTDSTPKKTQAHTQQNMVEKFSQLPFKVEAKPCTSNCRINTFRTVPIEQKHEVWGSNQNYICNTDPETDGLSPSVASPSPKEVNFVSRGASSHQPRVPLFPENGLHQQPEPLLPNNMKSACEKRLGCCSSPHSKPNCSTLSPPMPLPQLLPSVTDARSAGPSDHIDSSVTGVQRFRDTLKIPYKLELKNEPGRTDLKHIVIDGSNVAITHGLKKFFSCRGIAIAVEYFWKLGNRNITVFVPQWRTRRDPNVTEQHFLTQLQELGILSLTPARMVFGERIASHDDRFLLHLADKTGGIIVTNDNFREFVNESVSWREIITKRLLQYTFVGDIFMVPDDPLGRSGPRLEEFLQKEVCLRDMQPLLSALPNVGMFDPSFRVPGTQAASTSHQPPTRIQGAPSSHWLPQQPHFPLLPALPSLQQNLPMPAQRSSAETNELREALLKIFPDSEQRLKIDQILVAHPYMKDLNALSAMVLD [N4BP1]” are 0.0767, -0.0226, 1.68 and 2.82.
On the same counts, the results for “MAASRLELNLVRLLSRCEAMAAEKRDPDEWRLEKYVGALEDMLQALKVHASKPASEVINEYSWKVDFLKGMLQAEKLTSSSEKALANQFLAPGRVPTTARERVPATKTVHLQSRARYTSEMRSELLGTDSAEPEMDVRKRTGVAGSQPVSEKQLAAELDLVLQRHQNLQEKLAEEMLGLARSLKTNTLAAQSVIKKDNQTLSHSLKMADQNLEKLKTESERLEQHTQKSVNWLLWAMLIIVCFIFISMILFIRIMPKLK [USE1]” are 0.00595, -0.0501, 0.334 and 0.48.
With “MAEDWLDCPALGPGWKRREVFRKSGATCGRSDTYYQSPTGDRIRSKVELTRYLGPACDLTLFDFKQGILCYPAPKAHPVAVASKKRKKPSRPAKTRKRQVGPQSGEVRKEAPRDETKADTDTAPASFPAPGCCENCGISFSGDGTQRQRLKTLCKDCRAQRIAFNREQRMFKRVGCGECAACQVTEDCGACSTCLLQLPHDVASGLFCKCERRRCLRIVERSRGCGVCRGCQTQEDCGHCPICLRPPRPGLRRQWKCVQRRCLRGKHARRKGGCDSKMAARRRPGAQPLPPPPPSQSPEPTEPHPRALAPSPPAEFIYYCVDEDELQPYTNRRQNRKCGACAACLRRMDCGRCDFCCDKPKFGGSNQKRQKCRWRQCLQFAMKRLLPSVWSESEDGAGSPPPYRRRKRPSSARRHHLGPTLKPTLATRTAQPDHTQAPTKQEAGGGFVLPPPGTDLVFLREGASSPVQVPGPVAASTEALLQEAQCSGLSWVVALPQVKQEKADTQDEWTPGTAVLTSPVLVPGCPSKAVDPGLPSVKQEPPDPEEDKEENKDDSASKLAPEEEAGGAGTPVITEIFSLGGTRFRDTAVWLPRSKDLKKPGARKQ [MBD1]”, the “solubility in G1/S (log2)” value in the data set with HeLa Kyoto [1] was -0.475. Besides, the “solubility change mitosis (log2)” value with HeLa Kyoto [2] is 0.37. Besides, the values for the thermal stability score in the data set on HeLa Kyoto [3] (setting [5]) and with HeLa Kyoto [3] (cell cycle stage: mitosis) were -0.407 and -0.0664, respectively.
On the same counts, the results for “MAKQLQARRLDGIDYNPWVEFVKLASEHDVVNLGQGFPDFPPPDFAVEAFQHAVSGDFMLNQYTKTFGYPPLTKILASFFGELLGQEIDPLRNVLVTVGGYGALFTAFQALVDEGDEVIIIEPFFDCYEPMTMMAGGRPVFVSLKPGPIQNGELGSSSNWQLDPMELAGKFTSRTKALVLNTPNNPLGKVFSREELELVASLCQQHDVVCITDEVYQWMVYDGHQHISIASLPGMWERTLTIGSAGKTFSATGWKVGWVLGPDHIMKHLRTVHQNSVFHCPTQSQAAVAESFEREQLLFRQPSSYFVQFPQAMQRCRDHMIRSLQSVGLKPIIPQGSYFLITDISDFKRKMPDLPGAVDEPYDRRFVKWMIKNKGLVAIPVSIFYSVPHQKHFDHYIRFCFVKDEATLQAMDEKLRKWKVEL [CCBL1]” are 0.0856, -0.211, 0.0443 and -0.361.
On the same counts, the results for “MARPGMERWRDRLALVTGASGGIGAAVARALVQQGLKVVGCARTVGNIEELAAECKSAGYPGTLIPYRCDLSNEEDILSMFSAIRSQHSGVDICINNAGLARPDTLLSGSTSGWKDMFNVNVLALSICTREAYQSMKERNVDDGHIININSMSGHRVLPLSVTHFYSATKYAVTALTEGLRQELREAQTHIRATCISPGVVETQFAFKLHDKDPEKAAATYEQMKCLKPEDVAEAVIYVLSTPAHIQIGDIQMRPTEQVT [DHRS11]” are 0.514, -0.00389, -0.426 and -1.39.
The like results for “MARTTSQLYDAVPIQSSVVLCSCPSPSMVRTQTESSTPPGIPGGSRQGPAMDGTAAEPRPGAGSLQHAQPPPQPRKKRPEDFKFGKILGEGSFSTVVLARELATSREYAIKILEKRHIIKENKVPYVTRERDVMSRLDHPFFVKLYFTFQDDEKLYFGLSYAKNGELLKYIRKIGSFDETCTRFYTAEIVSALEYLHGKGIIHRDLKPENILLNEDMHIQITDFGTAKVLSPESKQARANSFVGTAQYVSPELLTEKSACKSSDLWALGCIIYQLVAGLPPFRAGNEYLIFQKIIKLEYDFPEKFFPKARDLVEKLLVLDATKRLGCEEMEGYGPLKAHPFFESVTWENLHQQTPPKLTAYLPAMSEDDEDCYGNYDNLLSQFGCMQVSSSSSSHSLSASDTGLPQRSGSNIEQYIHDLDSNSFELDLQFSEDEKRLLLEKQAGGNPWHQFVENNLILKMGPVDKRKGLFARRRQLLLTEGPHLYYVDPVNKVLKGEIPWSQELRPEAKNFKTFFVHTPNRTYYLMDPSGNAHKWCRKIQEVWRQRYQSHPDAAVQ [PDPK1]” were, in that order, 0.156, -0.222, 1.38 and 0.777.
Regarding “MWPPCGTLRTLALARSRGARACSGDGGVSYTQGQSPEPRTREYFYYVDHQGQLFLDDSKMKNFITCFKDPQFLVTFFSRLRPNRSGRYEAAFPFLSPCGRERNFLRCEDRPVVFTHLLTADHGPPRLSYCGGGEALAVPFEPARLLPLAANGRLYHPAPERAGGVGLVRSALAFELSACFEYGPGAPALPSHVRWQGRRLALTMDLAPLLLAARSP [C8ORF82]”, the “solubility in G1/S (log2)” value with HeLa Kyoto [1] came out at 0.265. Also, the values for the melting temperature in the data set with HeLa Kyoto [4] (cell cycle stage: G1/S) and with HeLa Kyoto [4] (cell cycle stage: mitosis) were 52.4 °C and 54.3 °C, respectively. Besides, the “solubility change mitosis (log2)” value with HeLa Kyoto [2] amounted to 0.0375.
The like results for “MYQDYPGNFDTSSRGSSGSPAHAESYSSGGGGQQKFRVDMPGSGSAFIPTINAITTSQDLQWMVQPTVITSMSNPYPRSHPYSPLPGLASVPGHMALPRPGVIKTIGTTVGRRRRDEQLSPEEEEKRRIRRERNKLAAAKCRNRRRELTEKLQAETEELEEEKSGLQKEIAELQKEKEKLEFMLVAHGPVCKISPEERRSPPAPGLQPMRSGGGSVGAVVVKQEPLEEDSPSSSSAGLDKAQRSVIKPISIAGGFYGEEPLHTPIVVTSTPAVTPGTSNLVFTYPSVLEQESPASPSESCSKAHRRSSSSGDQSSDSLNSPTLLAL [FOSL2]” were, in that order, 0.191, 53.9 °C, 55.1 °C and 0.106.
On to NBEAL2, for which the “solubility in G1/S (log2)” value with HeLa Kyoto [1] is -0.103. The substance also returned a melting temperature in the data set on HeLa Kyoto [4] (cell cycle stage: G1/S) of 52 °C. Further, in the data set with HeLa Kyoto [2], the “solubility change mitosis (log2)” value was -0.0719.
Regarding NFYA, in the data set on HeLa Kyoto [1], the “solubility in G1/S (log2)” value is -0.0285. The melting temperature with HeLa Kyoto [4] (cell cycle stage: G1/S) was determined as 58 °C; in the data set on HeLa Kyoto [4] (cell cycle stage: mitosis), 58.1 °C. Moreover, the “solubility change mitosis (log2)” value in the data set with HeLa Kyoto [2] is -0.0439.
The like results for RPL22L1 were, in that order, -0.564, 53.8 °C, 52 °C and 0.209.
The like results for SRCAP were, in that order, -0.24, 48.8 °C, 50.3 °C and 0.0318.
On the same counts, the results for TGOLN2 are -0.315, 59.5 °C, 53.9 °C and 0.881.
In the case of TOPBP1, the “solubility in G1/S (log2)” value in the data set on HeLa Kyoto [1] was -0.153. Moreover, the melting temperature in the data set on HeLa Kyoto [4] (cell cycle stage: G1/S) was 46.7 °C; in the data set on HeLa Kyoto [4] (cell cycle stage: mitosis), 49.1 °C. Also, the “solubility change mitosis (log2)” value in the data set on HeLa Kyoto [2] was -0.0346.
Regarding UNC13B, the “solubility in G1/S (log2)” value in the data set on HeLa Kyoto [1] is -0.113. Also, the values for the melting temperature in the data set with HeLa Kyoto [4] (cell cycle stage: G1/S) and in the data set on HeLa Kyoto [4] (cell cycle stage: mitosis) were 50.3 °C and 49.4 °C, respectively. Besides, the “solubility change mitosis (log2)” value with HeLa Kyoto [2] was -0.114.
With WNK2, the “solubility in G1/S (log2)” value with HeLa Kyoto [1] is 0.2. The melting temperature in the data set with HeLa Kyoto [4] (cell cycle stage: mitosis) is 52.6 °C. In addition, in the data set on HeLa Kyoto [2], the “solubility change mitosis (log2)” value was -0.0197.
In the case of ZNF593, in the data set with HeLa Kyoto [1], the “solubility in G1/S (log2)” value was -0.278. Besides, the melting temperature is 57.9 °C in the data set on HeLa Kyoto [4] (cell cycle stage: G1/S) and 51.7 °C in the data set on HeLa Kyoto [4] (cell cycle stage: mitosis). Further, the “solubility change mitosis (log2)” value with HeLa Kyoto [2] amounted to 1.09.

The record behind these values is the supplement of paper PMC5998384.
